Our source for the Km and kcat values is paper PMC8604678, “The MttB superfamily member MtyB from the human gut symbiont Eubacterium limosum is a cobalamin-dependent γ-butyrobetaine methyltransferase” (The Journal of Biological Chemistry, 2021).

Substrate in data set [1]: C[N+](C)(C)CCCC(=O)[O-]
The experiment in a line: UV-visible spectrophotometric MtqC methylation assay. Conditions: ATP, Ti(III)citrate, pH 7.2, 37 °C, anoxic. Type of data set: biochemical, Eubacterium limosum.

Substrate in data set [2]: C[N+](C)(C)C[C@H](O)CC(=O)O
Described as above. In kind it is biochemical, Eubacterium limosum. The following applies: methyl acceptor Co(I)-MtqC 15 μM, RamQ 5 μM, ATP, Ti(III)citrate, pH 7.2, 37 °C, anoxic.

The mark [3] stands for this setting: methyl acceptor Co(I)-MtqC 56 μM, RamQ 4.5 μM.
The mark [4] stands for this setting: methyl acceptor Co(I)-MtqC 30 μM, RamQ 5 μM.

B1: MtcB (Eubacterium limosum) (protein)
chain: MIRNSLTDVFFAKDDVENLHEGVLRVLSKVGVKIENDEALGIFEQHGARVENGTVYIGEVLLNKALQTVPANFELQGFDRTVQVGLDHDPVVIPTNGTPMVLNFDGSYSDTNTDDLVNFYKLIDTSDVMQVTSEIAVDVPGLDKTKDSLLAQTALLMKYSHKPIYNILGATIHNYKKGSVAQGVRENIQFAKKYYGYDDKYVIYSGTCVISPLGVGWEAMDHFMGFIKENQPISITACSMTNLTAPGSLYGSVVEDAAAILSIVVLSQLMNPGLPVLYTSLSSMSDMRYVQLCMGAPEFALITLGHIALANFYKIPVRVGGALGDAFKADYQAGVESFVGLMAPMLSQSAMIPHGCGTMGSFNLTSYEKFIMDEETIRYLMRLRRGFEVSDKRKEKALKDITKVGPRGNFLGGRTPKEYREDNYLASEVFNRKGCKENTREEQGDIRDRARKVYDARMEAYELPDTTLEQKKLLNTELPEQYKFDI
notes: expression plasmid of earlier work
As for B1, in data set [1] (setting [3]), the Km is listed as 15 ± 6 mM and the catalytic constant (kcat) is 0.138 ± 0.0183 s⁻¹.

B2: MtyB (Eubacterium limosum) (protein)
chain: MLKGNLFTTFYSKDDIELIHESVLRVFNEVGVKFEYEEALELFKKHGARVEGDLVFIPEELLNKALSTIPESFEIVGPESKLEIGIGKGLVVAPTNGCPNLEDWDGNYRQTNADDLENFYKIINTSDVYGISSQVAADIPGFENCPTESALAQMAMMAKYSRKPMYNILGITPHNYKRGNAREGARECVQLIKKYMDNFDDYVCYSGMCVLPPLTVGTDALEHYFAFAEEKQPITITTCSMTNMTAPPSLMGSIVADFANMLAVAVMIQLIEPGLPVILSPFSSVSDMREVRLMTGAPEFLMIMSGHIAMGDFYRIPVRCSGALADGFTYDYQAGVESTLGALAVSLSNACILPHASGDLSNFNLLSFPKFMMDEEMLRYMKRLHDGVAISEKKANVELIKKVGPRGVYLKGRTPKDYREETYLTSPVFNRGTCNEEGRAATPPIQERAYKVYKERIESFELPDMTQAQKDLLNEHLPEKFKIK
notes: C-terminal hexahistidine tag, codon-optimized gene in pETDuet-1 co-expressed with mtqC in E. coli Tuner(DE3), separated from MtqC by anion exchange
As for B2, the Km in data set [1] (setting [4]) was found to be 3.5 ± 0.7 mM; in data set [2], 4.0 ± 0.7 mM. Besides, the catalytic constant (kcat) in data set [1] (setting [4]) worked out at 3 ± 0.167 s⁻¹; in data set [2], 6.78 ± 0.442 s⁻¹.
